These results are taken from patent publication US20180185516A1, “DELIVERY OF TARGET SPECIFIC NUCLEASES” (Sangamo Therapeutics, Inc., priority 2016, published 2018).

In series [1] the test system is ZFN 48641 (mALB) (synthetic). Briefly: cell_activity. Conditions: pair with 31523; mouse liver after third 2 mg/kg LNP dose.
The subject of the next series is mouse albumin. Description: Indel analysis (nuclease activity) in livers of mice injected intravenously with ZFN mRNA LNPs. The class given is in vivo. The note with it: 48641/31523 mRNA LNP (II-9), single dose 2 mg/kg; FIG. 4B. Here is the method:
8-10 week old C57BL6 purchased from Charles River were injected intravenously through the tail vein with 200 uL of an aqueous solution containing diluted LNPs or a mixture of diluted LNPs and AAV donor encoding a human IDS or human FIX transgene containing homology arms flanking the ZFN cut site and a splice acceptor just upstream of the coding sequence of the transgene. Some animals were injected with 5 mg/kg dexamethasone intraperitoneally 30 minutes prior to LNP dosing. Animals were then sacrificed 7 days post LNP dosing or re-dosed with LNPs at either a 7 or 14 day interval before subsequent sacrifice and harvesting of liver tissue. Livers were snap frozen and a small portion of both the left and right lobes were dissected and harvested for gDNA using a FastPrep-24 Homogenizer (MP Biomedicals), Lysis Matrix D solution (MP Biomedicals), and a MasterPure DNA Purification kit (Epicentre).
Primers were designed to amplify approximately 200 bp of total genomic DNA sequence containing the ZFN cut site. Amplicons were then ran on either a Miseq or Nextseq (Illumina) and insertions and deletions (indels) from the wildtype genomic sequence were quantified.
To test the ability of targeted zinc finger nucleases to cleave a site in the mouse genome in vivo, mRNAs encoding albumin specific nucleases were incorporated into LNPs as described above using the cationic lipid I-6. […]

Series [2] has as its system ZFN 31523 (mALB) (synthetic). Description: cell_activity. Conditions: pair with 48641; mouse liver after third 2 mg/kg LNP dose.

For “CTGAAGGTGGCAATGGTTCCTCTCTGCT (double strand) [mouse ALB intron 1 left half-site]”, the activity in series [1] is 25 % indels.
With `C[C@H]1C[C@@H]2[C@H]([C@@H](O)C[C@@]3(C)[C@H]2CC[C@]3(O)C(=O)COC(=O)CCC(=O)[O-])[C@@]2(C)C=CC(=O)C=C12.[Na+]` [Solumedrol®, methylprednisolone sodium succinate], the “nuclease activity, dexamethasone pretreatment vs Solumedrol pretreatment plus 3 days” value in the series on mouse albumin is listed as “slightly more efficacious”.
In series [2], “TTTCCTGTAACGATCGGGAACTGGCATC (double strand) [mouse ALB intron 1 right half-site]” showed an activity of 25 % indels.
